We go through 1 molecule from paper PMC3025356, “Mechanism of the Ca^2+-Dependent Interaction between S100A4 and Tail Fragments of Nonmuscle Myosin Heavy Chain IIA” (Journal of Molecular Biology, 2011).

Entries after “also recorded” stand apart in the source; their conditions may differ.

The target of one data set is T1, S100A4 (Homo sapiens, UniProt P26447).
T1 construct: We used full-length S100A4 for this analysis; made in house; host or cells: Escherichia coli BL21(DE3)
Briefly: Quin-2 fluorescence, Ca^2+ dissociation from S100A4 in the presence of target peptides. It is filed as binding. The protocol:
Ca^2+ dissociation measurements for wild-type S100A4, using Quin-2 as described above, were repeated as a control for the effect of target peptides on this process. On mixing 10 μM S100A4 in the presence of Ca^2+ with 100 μM Quin-2, the observed profile was fitted to a single exponential with kobs = 17 s^− 1 (Fig. 5a; cf. k− 1 in Scheme 1).
Fig. 5 Dissociation of Ca^2+ from S100A4 in the absence and in the presence of target peptides monitored using Quin-2 fluorescence. (a) Mixed with 100 μM Quin-2 was 10 μM S100A4 + 50 μM Ca^2+ (stopped-flow reaction chamber concentrations). A superposed fit to a single exponential yields kobs = 17 s^− 1. […] (d) As in (a), but with 2.5 μM M200 premixed with 5 μM S100A4. A biphasic exponential fit yielded rate constants of 13 s^− 1 (A = 26%) and 0.30 s^− 1 (A = 74%). […] Experiments were carried out in either 20 mM NaCl, 20 mM Tris, 1 mM DTT, and 100 μM Ca^2+ at pH 7.5 and 20 °C (a and b; cf. Malashkevich et al.[17]), or 100 mM NaCl, 10 mM Hepes, and 100 μM Ca^2+ at pH 7.5 and 20 °C (c and d). […] Rate constants were unaffected by the inclusion of 1 mM Mg^2+.
Stopped-flow measurements were carried out using an SX18-MV apparatus (Applied Photophysics Ltd., Leatherhead, UK) with a dead time of 1.5 ms.[40] Records were generally captured on a logarithmic time base. Absorption (turbidity) measurements were usually recorded using a 10-mm pathlength, while fluorescence was recorded with a 2-mm pathlength for excitation and emission. The stated concentrations of components refer to the reaction chamber after mixing, unless otherwise indicated. Tyrosine fluorescence was excited at 280 nm, and the emission was collected through a UG11 bandpass filter plus a 305-nm longpass filter.[18] Fluorescein fluorescence was excited at 480 nm, and the emission was detected through a 515-nm longpass filter. Quin-2 fluorescence was measured by excitation at 336 nm, and emission was collected with a 455-nm longpass filter. For simultaneous recording of light scatter, a second channel was monitored through a UG11 filter. Rate constants were obtained by fitting to single-exponential or double-exponential functions using Kaleidagraph (Synergy Software) or Applied Photophysics Pro-Data software. Modeling of kinetic schemes was performed using Berkeley Madonna software.

A short description of data set [1]: CD / helical stability of M111. It is filed as physicochemical. Conditions: 0.05 mM protein. The protocol: CD spectra were measured on a JASCO J-715 spectropolarimeter equipped with a JASCO PTC-348WI temperature-controlled unit at 0.05 mM protein solutions using a 1-mm pathlength microcuvette.
Where [2] appears, read: increasing concentrations of M111.

T1 sequence (P26447 whole entry): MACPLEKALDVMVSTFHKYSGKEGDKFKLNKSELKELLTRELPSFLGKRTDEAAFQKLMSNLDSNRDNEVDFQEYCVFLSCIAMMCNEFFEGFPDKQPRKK

B1: M111: His-tagged human NM-MHC IIA residues 1850-1960, V1913I substitution (protein, UniProt P35579 1850-1960, looked up, variant V1913I)
chain: QVDDERRNAEQYKDQADKASTRLKQLKRQLEEAEEEAQRANASRRKLQRELEDATETADAMNREISSLKNKLRRGDLPFVVPRRMARKGAGDGSDEEVDGKADGAEAKPAE
modifications: His tag
notes: His-tagged human NM-MHC IIA residues 1850-1960, V1913I substitution
Take B1: in the data set with S100A4 (5 μM M111, 10 μM S100A4), the fast-phase amplitude turned out to be 6% and the slow-phase amplitude is 94%. For the same molecule, the slow-phase rate constant with S100A4 (5 μM M111, 10 μM S100A4, 50 μM Ca^2+, 100 μM Quin-2) was found to be 0.36 s⁻¹. For the same molecule, the fast-phase rate constant in the data set with S100A4 (5 μM M111, 10 μM S100A4, 50 μM Ca^2+, 100 μM Quin-2, residual unbound S100A4) worked out at 21 s⁻¹. The “slower release of Ca^2+” value with S100A4 (in presence of coiled-coil fragments) is recorded as 0.3–0.5 s^− 1. In the data set with S100A4 (setting [2]), the fast-phase rate constant is recorded as 20 s^− 1 and the slow-phase rate constant amounted to 0.4 s^− 1. Moreover, in the data set with S100A4 (peptide–S100A4–Ca^2+ complex), the “Ca^2+ dissociation rate constant from complex (k− 3), comparison” value is given as 0.3 s^− 1. Further, the helical structure stability result in data set [1] was “high helical content detected for the fragment by CD below 20 °C; also recorded: only marginally stable at 20 °C”.
